Assay results taken from patent US20220389406A1.

Biological target: HLA-A*02:01-restricted MART-1 epitope, A*02:0
Experiment: cell-based or functional assay

For DMF4 (TCR), the frequency of the TCR in post-real-selection (CD137-positive, sorted) against pre-selection polyclonal TCR-T cells, by NGS was 10 fold.
